Target: the molecule itself
Experiment: cross-linking; HSP90α CTD (2 μM) in Na2HPO4 (25 mM; pH 7.4), incubated 1 h at room temperature with different concentrations of VWK147, then BS3 100 μM for 1 h at room temperature; 12% SDS-PAGE and Western blot with anti-HSP90 (AC88)

B1: recombinant HSP90α CTD (domain or fragment)
chain: not shown
notes: C-terminal domain (CTD) of heat shock protein 90 alpha (HSP90α; HSPC1/HSP90AA1); It says human (hHSP90) only of HSP90 in general and in the modelling; also called CTD r-HSP90α; HSP90 CTD; source: recombinant
- stoichiometry N: 2
